Source: the Immune Epitope Database (IEDB)

How the values were obtained:
[1] = biological target: HLA-A*01:01; test: IEDB peptide-MHC binding, purified MHC/direct/fluorescence; filed as Kd, often an IC50 or EC50 that approximates it; ≥ and ≤ were set here for values at or beyond the usual limits of such assays
[2] = biological target: HLA-A*29:02; test: as above
[3] = biological target: HLA-A*68:01; test: IEDB peptide-MHC binding, purified MHC/competitive/radioactivity; filed as Kd, often an IC50 or EC50 that approximates it; ≥ and ≤ were set here for values at or beyond the usual limits of such assays; details: source organism: Hepatitis C virus (isolate 1)
[4] = biological target: HLA-A*11:01; test: as above; details: source organism: Hepatitis C virus (isolate 1)
[5] = biological target: HLA-A*68:02; test: as above; details: source organism: Hepatitis C virus (isolate 1)
[6] = biological target: HLA-A*02:06; test: as above; details: source organism: Hepatitis C virus (isolate 1)
[7] = biological target: HLA-B*51:01; test: as above; details: source organism: Hepatitis C virus (isolate 1)
[8] = biological target: HLA-B*53:01; test: as above; details: source organism: Hepatitis C virus (isolate 1)
[9] = biological target: HLA-A*02:02; test: as above; details: source organism: Hepatitis C virus (isolate 1)
[10] = biological target: HLA-B*07:02; test: as above; details: source organism: Hepatitis C virus (isolate 1)
[11] = biological target: HLA-B*18:01; test: as above; details: source organism: Hepatitis C virus (isolate 1)
[12] = biological target: HLA-A*31:01; test: as above; details: source organism: Hepatitis C virus (isolate 1)
[13] = biological target: HLA-B*40:02; test: as above; details: source organism: Hepatitis C virus (isolate 1)
[14] = biological target: HLA-A*33:01; test: as above; details: source organism: Hepatitis C virus (isolate 1)
[15] = biological target: HLA-B*35:01; test: as above; details: source organism: Hepatitis C virus (isolate 1)
[16] = biological target: HLA-A*03:01; test: as above; details: source organism: Hepatitis C virus (isolate 1)
[17] = biological target: HLA-A*01:01; test: as above; details: source organism: Hepatitis C virus (isolate 1)
[18] = biological target: HLA-B*40:01; test: as above; details: source organism: Hepatitis C virus (isolate 1)
[19] = biological target: HLA-B*44:03; test: as above; details: source organism: Hepatitis C virus (isolate 1)
[20] = biological target: HLA-B*54:01; test: as above; details: source organism: Hepatitis C virus (isolate 1)
[21] = biological target: HLA-A*02:03; test: as above; details: source organism: Hepatitis C virus (isolate 1)
[22] = biological target: HLA-A*02:01; test: as above; details: source organism: Hepatitis C virus (isolate 1)
[23] = biological target: HLA-A*11:01; test: IEDB peptide-MHC binding, purified MHC/direct/fluorescence; filed as Kd, often an IC50 or EC50 that approximates it; ≥ and ≤ were set here for values at or beyond the usual limits of such assays
[24] = biological target: HLA-B*48:01; test: as above
[25] = biological target: HLA-B*58:01; test: as above
[26] = biological target: HLA-A*69:01; test: as above
[27] = biological target: HLA-B*18:01; test: as above
[28] = biological target: HLA-A*31:01; test: as above
[29] = biological target: HLA-B*08:01; test: as above
[30] = biological target: HLA-B*44:02; test: as above
[31] = biological target: HLA-B*46:01; test: as above
[32] = biological target: HLA-A*03:01; test: as above
[33] = biological target: HLA-B*40:01; test: as above
[34] = biological target: HLA-B*27:05; test: as above
[35] = biological target: HLA-B*57:01; test: as above
[36] = biological target: HLA-A*02:01; test: as above
[37] = biological target: HLA-B*07:02; test: as above
[38] = biological target: HLA-A*02:01; test: IEDB peptide-MHC binding, purified MHC/competitive/fluorescence; filed as Kd, often an IC50 or EC50 that approximates it; ≥ and ≤ were set here for values at or beyond the usual limits of such assays; details: source organism: Mycobacterium tuberculosis variant bovis BCG str. Pasteur 1173P2
[39] = biological target: HLA-B*15:01; test: IEDB peptide-MHC binding, purified MHC/direct/fluorescence; filed as Kd, often an IC50 or EC50 that approximates it; ≥ and ≤ were set here for values at or beyond the usual limits of such assays
[40] = biological target: HLA-B*15:17; test: as above
[41] = biological target: HLA-B*51:01; test: IEDB peptide-MHC binding, purified MHC/competitive/fluorescence; filed as Kd, often an IC50 or EC50 that approximates it; ≥ and ≤ were set here for values at or beyond the usual limits of such assays; details: source organism: Mycobacterium tuberculosis variant bovis
[42] = source organism: Mammarenavirus juninense
[43] = source organism: Mycobacterium tuberculosis C
[44] = source organism: Mycobacterium tuberculosis
[45] = source organism: Coxiella burnetii
[46] = source organism: Bacillus anthracis
[47] = source organism: Mycobacterium tuberculosis variant bovis

ATDPVEMAL
Kd [1, 42]: 0.308 µM | Kd [2, 42]: ≥ 20 µM

HSKKKCDEL
Kd [3]: ≥ 77.7 µM | Kd [4]: ≥ 37.3 µM | Kd [5]: ≥ 69.8 µM | Kd [6]: ≥ 77.1 µM | Kd [7]: ≥ 77.5 µM | Kd [8]: ≥ 78.2 µM | Kd [9]: ≥ 70 µM | Kd [10]: ≥ 77.5 µM | Kd [11]: ≥ 77.5 µM | Kd [12]: ≥ 65 µM | Kd [13]: ≥ 77.3 µM | Kd [14]: ≥ 77.7 µM | Kd [15]: ≥ 77.4 µM | Kd [16]: ≥ 78 µM | Kd [17]: 3.52 µM | Kd [18]: ≥ 76.2 µM | Kd [19]: ≥ 78.2 µM | Kd [20]: ≥ 78.1 µM | Kd [21]: ≥ 78.1 µM | Kd [22]: ≥ 69.4 µM

IIRTENRPL
Kd [23, 43]: ≥ 20 µM | Kd [24, 43]: ≥ 20 µM | Kd [25, 43]: ≥ 20 µM | Kd [26, 43]: ≥ 20 µM | Kd [27, 43]: ≥ 20 µM | Kd [28, 43]: ≥ 20 µM | Kd [29, 43]: 3.06 µM | Kd [30, 43]: ≥ 20 µM | Kd [31, 43]: ≥ 20 µM | Kd [32, 43]: ≥ 20 µM | Kd [1, 43]: ≥ 20 µM | Kd [33, 43]: ≥ 20 µM | Kd [2, 43]: ≥ 20 µM | Kd [34, 43]: ≥ 20 µM | Kd [35, 43]: ≥ 20 µM | Kd [36, 43]: ≥ 20 µM

IQAVFGFSL
Kd [23, 44]: ≥ 20 µM | Kd [25, 44]: ≥ 20 µM | Kd [26, 44]: ≥ 20 µM | Kd [37, 44]: ≥ 20 µM | Kd [28, 44]: ≥ 20 µM | Kd [30, 44]: ≥ 20 µM | Kd [31, 44]: ≥ 20 µM | Kd [32, 44]: ≥ 20 µM | Kd [1, 44]: ≥ 20 µM | Kd [2, 44]: ≥ 20 µM | Kd [34, 44]: ≥ 20 µM | Kd [35, 44]: ≥ 20 µM | Kd [38]: 1.35 µM

ITLYEYDHF
Kd [25, 45]: 0.885 µM | Kd [37, 45]: ≥ 20 µM | Kd [39, 45]: ≥ 20 µM | Kd [32, 45]: ≥ 20 µM | Kd [1, 45]: ≥ 20 µM | Kd [40, 45]: 0.0126 µM | Kd [34, 45]: ≥ 20 µM | Kd [35, 45]: 0.13 µM | Kd [36, 45]: ≥ 20 µM

PTDYAKPQY
Kd [23, 46]: ≥ 20 µM | Kd [24, 46]: ≥ 20 µM | Kd [25, 46]: ≥ 20 µM | Kd [26, 46]: ≥ 20 µM | Kd [37, 46]: ≥ 20 µM | Kd [27, 46]: ≥ 20 µM | Kd [28, 46]: ≥ 20 µM | Kd ([29]; source organism: Bacillus anthracis str. A2012): ≥ 20 µM | Kd [31, 46]: ≥ 20 µM | Kd [39, 46]: ≥ 20 µM | Kd [32, 46]: ≥ 20 µM | Kd [1, 46]: 0.0525 µM | Kd [33, 46]: ≥ 20 µM | Kd [40, 46]: ≥ 20 µM | Kd [34, 46]: ≥ 20 µM | Kd [35, 46]: ≥ 20 µM | Kd [36, 46]: ≥ 20 µM

TPREAPYEL
Kd [23, 47]: ≥ 20 µM | Kd [24, 47]: ≥ 20 µM | Kd [25, 47]: ≥ 20 µM | Kd [26, 47]: ≥ 20 µM | Kd [27, 47]: ≥ 20 µM | Kd [28, 47]: ≥ 20 µM | Kd [29, 47]: 7 µM | Kd [30, 47]: ≥ 20 µM | Kd [31, 47]: ≥ 20 µM | Kd [39, 47]: ≥ 20 µM | Kd [32, 47]: ≥ 20 µM | Kd [1, 47]: ≥ 20 µM | Kd [33, 47]: ≥ 20 µM | Kd [2, 47]: ≥ 20 µM | Kd [34, 47]: ≥ 20 µM | Kd [35, 47]: ≥ 20 µM | Kd [36, 47]: ≥ 20 µM | Kd [41]: ≥ 20 µM
